Where “and” joins values, the source holds several entries; their conditions need not be identical. Equal values may be shown once. Read-outs that look alike come from different tables or passages of the source.
Legend:
human ACE2 [1] = molecular target: T1, human ACE2 (human, UniProt Q9BYF1 18-740)
human ACE2 [2] = molecular target: T1, human ACE2; remark: listed apart in the source
SARS-CoV-2 S1 protein [3] = molecular target: T2, SARS-CoV-2 S1 protein (SARS-CoV-2, UniProt P0DTC2 16-685); assay: phage ELISA screen on S1, mean
T2 construct: also called SARS-CoV-2 Spike Glycoprotein S1; S1 (subunit 1)

SARS-CoV-2 S1 protein [4] = molecular target: T2, SARS-CoV-2 S1 protein; assay: phage ELISA screen on S1, mean; remark: listed apart in the source
SARS-CoV-2 S1 protein [5] = molecular target: T2, SARS-CoV-2 S1 protein; assay: ELISA binding titration on coated antigen
SARS-CoV-2 S1 protein [6] = molecular target: T2, SARS-CoV-2 S1 protein; assay: Carterra SPR, DB format, S1
SARS-CoV-2 S1 protein [7] = molecular target: T2, SARS-CoV-2 S1 protein; assay: Carterra SPR, Fc capture, S1
SARS-CoV-2 S1 protein [8] = molecular target: T2, SARS-CoV-2 S1 protein; assay: inhibitor ELISA, competitor ACE2
[9] = molecular target: T3, SARS-CoV-2 Spike Glycoprotein S1 (SARS-CoV-2, UniProt P0DTC2 16-685); assay: ELISA, plate coated with S1
T3 construct: also called S1 Monomer

[10] = molecular target: T4, SARS-CoV-2 antigen of the epitope binning (SARS-CoV-2, UniProt P0DTC2 16-685); assay: epitope binning; competitor 2-2
T4 construct: also called S1

[11] = molecular target: T4, SARS-CoV-2 antigen of the epitope …; assay: epitope binning; competitor 2-5
[12] = molecular target: T4, SARS-CoV-2 antigen of the epitope …; assay: epitope binning; competitor 2-6
[13] = molecular target: T4, SARS-CoV-2 antigen of the epitope …; assay: epitope binning; competitor 2-8
[14] = molecular target: T4, SARS-CoV-2 antigen of the epitope …; assay: epitope binning; competitor 1-16
[15] = molecular target: T4, SARS-CoV-2 antigen of the epitope …; assay: epitope binning; competitor 1-32
[16] = molecular target: T4, SARS-CoV-2 antigen of the epitope …; assay: epitope binning; competitor 1-35
[17] = molecular target: T4, SARS-CoV-2 antigen of the epitope …; assay: epitope binning; competitor 2-11
[18] = molecular target: T4, SARS-CoV-2 antigen of the epitope …; assay: epitope binning; competitor CR3022
[19] = molecular target: T4, SARS-CoV-2 antigen of the epitope …; assay: epitope binning; competitor Acro mAb
S protein trimer = S protein trimer (SARS-CoV-2, UniProt P0DTC2 14-1208); assay: ELISA, plate coated with S protein trimer
[20] = molecular target: T5, SARS-CoV-2 S protein RBD, SPD-C5259 (SARS-CoV-2, UniProt P0DTC2 319-537); assay: FACS, inhibition of S protein RBD binding to Vero cells
T5 construct: domain: RBD

T1 sequence (Q9BYF1 18-740 limits assumed): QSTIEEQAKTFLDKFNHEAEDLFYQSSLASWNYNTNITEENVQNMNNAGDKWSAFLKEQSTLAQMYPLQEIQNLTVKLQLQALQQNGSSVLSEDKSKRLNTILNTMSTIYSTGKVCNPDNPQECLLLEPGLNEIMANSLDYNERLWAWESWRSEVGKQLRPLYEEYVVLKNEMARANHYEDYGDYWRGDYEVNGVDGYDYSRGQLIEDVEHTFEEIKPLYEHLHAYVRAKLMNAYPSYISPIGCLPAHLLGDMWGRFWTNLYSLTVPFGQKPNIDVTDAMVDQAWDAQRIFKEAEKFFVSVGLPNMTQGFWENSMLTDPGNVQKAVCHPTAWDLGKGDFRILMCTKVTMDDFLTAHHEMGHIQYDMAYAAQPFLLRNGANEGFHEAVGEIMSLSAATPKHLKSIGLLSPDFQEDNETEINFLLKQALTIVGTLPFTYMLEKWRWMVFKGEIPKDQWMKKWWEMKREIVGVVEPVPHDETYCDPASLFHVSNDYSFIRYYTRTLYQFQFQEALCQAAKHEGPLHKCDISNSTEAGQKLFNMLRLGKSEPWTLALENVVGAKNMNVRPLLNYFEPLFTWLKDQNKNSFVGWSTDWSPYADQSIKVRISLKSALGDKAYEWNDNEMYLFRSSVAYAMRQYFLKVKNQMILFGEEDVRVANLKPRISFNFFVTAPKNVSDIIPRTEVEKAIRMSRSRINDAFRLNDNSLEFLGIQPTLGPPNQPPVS

B1: 4-17 (VHH)
VHH: EVQLVESGGGLVQPGGSLRLSCAASGQLANFASYAMGWFRQAPGKEREFVAAITRSGSSTVYADSVKGRFTISADNSKNTAYLQMNSLKPEDTAVYYCATTMNPNPRWGQGTLVTVSS
IC50 (human ACE2 [1]): 0.721 nM
Kd (human ACE2 [2]): 18.8 nM and 30.6 nM

B2: 2-19 (antibody, V domains shown)
VH: EVQLLESGGGLVQPGGSLRLSCAASGFTFSSYTMSWVRQAPGKGLEWVSVISGSGGSTYYADSVKGRFTISRDNSKNTLYLQMNSLRAEDTAVYYCAREGYRDYLWYFDLWGQGTLVTVSS
VL: DIQMTQSPSSLSASVGDRVTITCTGTSTDVGSYNLVSWYQQKPGKAPKLLIYEGTKRPSGVPSRFSGSGSGTDFTLTISSLQPEDFATYYCCSYAGSYTSVVFGQGTKVEIK
notes: also called variant 2-19
ELISA(Avg) (SARS-CoV-2 S1 protein [3]): 21.7 fold over background
ELISA(Avg) (SARS-CoV-2 S1 protein [4]): 21.7 fold over background

B3: 2-2 (second entry, printed after 2-19) (antibody, V domains shown)
VH: EVQLLESGGGLVQPGGSLRLSCAASGFTFSSYDMSWVRQAPGKGLEWVSVISGSGGSTYYADSVKGRFTISRDNSKNTLYLQMNSLRAEDTAVYYCAKGPLVGWYFDLWGQGTLVTVSS
VL: DIQMTQSPSSLSASVGDRVTITCTGTSSNVGSYNLVSWYQQKPGKAPKLLIYEGTKRPSGVPSRFSGSGSGTDFTLTISSLQPEDFATYYCCSYAGSSSFVVFGQGTKVEIK
ELISA(Avg) (SARS-CoV-2 S1 protein [3]): 12.8 fold over background
ELISA(Avg) (SARS-CoV-2 S1 protein [4]): 12.8 fold over background
EC50 (SARS-CoV-2 S1 protein [5]): 100 nM

B4: 2-17 (antibody, V domains shown)
VH: EVQLLESGGGLVQPGGSLRLSCAASGFTFSNYAMSWVRQAPGKGLEWVSAISGSAGSTYYADSVKGRFTISRDNSKNTLYLQMNSLRAEDTAVYYCARVRQGLRRTWYYFDYWGQGTLVTVSS
VL: DIQMTQSPSSLSASVGDRVTITCTGTSSDVGSSNLVSWYQQKPGKAPKLLIYEGSKRPSGVPSRFSGSGSGTDFTLTISSLQPEDFATYYCCSYAGSLYVFGQGTKVEIK
notes: also called variant 2-17
ELISA(Avg) (SARS-CoV-2 S1 protein [3]): 3.5 fold over background
ELISA(Avg) (SARS-CoV-2 S1 protein [4]): 3.5 fold over background
EC50 (SARS-CoV-2 S1 protein [5]): 100 nM

B5: 4-140 (VHH)
VHH: EVQLVESGGGLVQPGGSLRLSCAASGRTFSNAAMGWFRQAPGKEREFVARITWNGGSTFYADSVKGRFTISADNSKNTAYLQMNSLKPEDTAVYYCATTENPNPRWGQGTLVTVSS
IC50 (human ACE2 [1]): 3.07 nM
Kd (human ACE2 [2]): 8.9 nM

B6: 4-54 (VHH)
VHH: EVQLVESGGGLVQPGGSLRLSCAASGRTFSDARMGWFRQAPGKEREFVGAVSWSGGTTVYADSVKGRFTISADNSKNTAYLQMNSLKPEDTAVYYCATTEDPYPRWGQGTLVTVSS
IC50 (human ACE2 [1]): 2 nM
Kd (human ACE2 [2]): 645 nM

B7: 4-39 (VHH)
VHH: EVQLVESGGGLVQPGGSLRLSCAASGRTFSNAAMGWFRQAPGKEREFVARILWTGASRNYADSVKGRFTISADNSKNTAYLQMNSLKPEDTAVYYCATTENPNPRWGQGTLVTVSS
IC50 (human ACE2 [1]): 1.15 nM
Kd (human ACE2 [2]): 17.5 nM

B8: 4-101 (VHH)
VHH: EVQLVESGGGLVQPGGSLRLSCAASGRTFSNAAMGWFRQAPGKEREFVARILWTGASRSYADSVKGRFTISADNSKNTAYLQMNSLKPEDTAVYYCATTENPNPRWGQGTLVTVSS
IC50 (human ACE2 [1]): 0.568 nM
Kd (human ACE2 [2]): 5.8 nM

B9: 2-5 (antibody, V domains shown)
VH: EVQLLESGGGLVQPGGSLRLSCAASGFTFSDFAMAWVRQAPGKGLEWVSAISGSGDITYYADSVKGRFTISRDNSKNTLYLQMNSLRAEDTAVYYCAREADGLHSPWHFDLWGQGTLVTVSS
VL: DIQMTQSPSSLSASVGDRVTITCRASQSIHTYLNWYQQKPGKAPKLLIYAASALASGVPSRFSGSGSGTDFTLTISSLQPEDFATYYCQQSYSAPPYTFGQGTKVEIK
notes: also called variant 2-5
Kd (SARS-CoV-2 S1 protein [6]): 2.8 nM
Kd (SARS-CoV-2 S1 protein [7]): 1.9 nM
ELISA(Avg) (SARS-CoV-2 S1 protein [4]): 30.8 fold over background
IC50 (SARS-CoV-2 S1 protein [8]): 4.2 nM
EC50 (SARS-CoV-2 S1 protein [5]): 0.133 nM

B10: 2-12 (antibody, V domains shown)
VH: EVQLLESGGGLVQPGGSLRLSCAASGFTFSDYPMNWVRQAPGKGLEWVSTISGSGGITFYADSVKGRFTISRDNSKNTLYLQMNSLRAEDTAVYYCVRHDEYSFDYWGQGTLVTVSS
VL: DIQMTQSPSSLSASVGDRVTITCRASQSIDNYLNWYQQKPGKAPKLLIYGVSALQSGVPSRFSGSGSGTDFTLTISSLQPEDFATYYCQQSHSAPPYFFGQGTKVEIK
notes: also called variant 2-12
ELISA(Avg) (SARS-CoV-2 S1 protein [4]): 18.2 fold over background
IC50 (SARS-CoV-2 S1 protein [8]): 1 nM

B11: 2-8 (antibody, V domains shown)
VH: EVQLLESGGGLVQPGGSLRLSCAASGFTFSDFAMAWVRQAPGKGLEWVSAISGSGDITYYADSVKGRFTISRDNSKNTLYLQMNSLRAEDTAVYYCAREADGLHSPWHFDLWGQGTLVTVSS
VL: DIQMTQSPSSLSASVGDRVTITCRASQSIDTYLNWYQQKPGKAPKLLIYAASALASGVPSRFSGSGSGTDFTLTISSLQPEDFATYYCQQSYSAPPYTFGQGTKVEIK
S1 Monomer [9]: 1.52 nM
epitope binning score [10]: 0
epitope binning score [11]: 0
epitope binning score [12]: 1
epitope binning score [13]: 0
epitope binning score [14]: 1
epitope binning score [15]: 1
epitope binning score [16]: 1
epitope binning score [17]: 1
epitope binning score [18]: 0
epitope binning score [19]: 1
S Trimer (S protein trimer): 7.08 nM
IC50 [20]: 19.5 nM

B12: 2-4 (antibody, V domains shown)
VH: EVQLLESGGGLVQPGGSLRLSCAASGFTFSDFAMAWVRQAPGKGLEWVSAISGSGDITYYADSVKGRFTISRDNSKNTLYLQMNSLRAEDTAVYYCAREADGLHSPWHFDLWGQGTLVTVSS
VL: DIQMTQSPSSLSASVGDRVTITCRASQSIDTYLNWYQQKPGKAPKLLIYAASALASGVPSRFSGSGSGTDFTLTISSLQPEDFATYYCQQSYSAPPYTFGQGTKVEIK
S1 Monomer [9]: 1.58 nM
S Trimer (S protein trimer): 10.2 nM
IC50 [20]: 46.3 nM

B13: 2-13 (antibody, V domains shown)
VH: EVQLLESGGGLVQPGGSLRLSCAASGFTFSDYPMNWVRQAPGKGLEWVSAISGSGDNTYYADSVKGRFTISRDNSKNTLYLQMNSLRAEDTAVYYCVRHDEYSFDYWGQGTLVTVSS
VL: DIQMTQSPSSLSASVGDRVTITCRASQSIDTYLNWYQQKPGKAPKLLIYGASALESGVPSRFSGSGSGTDFTLTISSLQPEDFATYYCQQSHSAPPYFFGQGTKVEIK
notes: also called variant 2-13
ELISA(Avg) (SARS-CoV-2 S1 protein [4]): 19.1 fold over background
IC50 (SARS-CoV-2 S1 protein [8]): 45 nM

B14: 2-5 (antibody, V domains shown)
VH: EVQLLESGGGLVQPGGSLRLSCAASGFTFSDFAMAWVRQAPGKGLEWVSAISGSGDITYYADSVKGRFTISRDNSKNTLYLQMNSLRAEDTAVYYCAREADGLHSPWHFDLWGQGTLVTVSS
VL: DIQMTQSPSSLSASVGDRVTITCRASQSIHTYLNWYQQKPGKAPKLLIYAASALASGVPSRFSGSGSGTDFTLTISSLQPEDFATYYCQQSYSAPPYTFGQGTKVEIK
S1 Monomer [9]: 0.17 nM
epitope binning score [10]: 0
epitope binning score [11]: 0
epitope binning score [12]: 1
epitope binning score [13]: 0
epitope binning score [14]: 1
epitope binning score [15]: 1
epitope binning score [16]: 1
epitope binning score [17]: 1
epitope binning score [18]: 0
epitope binning score [19]: 1
S Trimer (S protein trimer): 0.59 nM
IC50 [20]: 4.4 nM

B15: 2-2 (antibody, V domains shown)
VH: EVQLLESGGGLVQPGGSLRLSCAASGFTFSRHAMNWVRQAPGKGLEWVSGISGSGDETYYADSVKGRFTISRDNSKNTLYLQMNSLRAEDTAVYYCARDLPASYYDSSGYYWHNGMDVWGQGTLVTVSS
VL: DIQMTQSPSSLSASVGDRVTITCRASQTINTYLNWYQQKPGKAPKLLIYSASTLQSGVPSRFSGSGSGTDFTLTISSLQPEDFATYYCQQSYSTFTFGQGTKVEIK
S1 Monomer [9]: 0.13 nM
epitope binning score [10]: 0
epitope binning score [11]: 0
epitope binning score [12]: 2
epitope binning score [13]: 0
epitope binning score [14]: 0
epitope binning score [15]: 2
epitope binning score [16]: 1
epitope binning score [17]: 0
epitope binning score [18]: 0
epitope binning score [19]: 0
S Trimer (S protein trimer): 0.64 nM
IC50 [20]: 3 nM
